Results as given in patent US20100105875A1 (published 2010).

Legend:
[1] = biological target: T1, fHbp of N. meningitidis strain MC58 (full-length mature factor H binding protein) (Neisseria meningitidis strain MC58, UniProt E6MV22 20-274); test: western blot on cell extracts; FACS on bacteria
T1 construct: also called MC58 fHbp; protein 741
T1 sequence: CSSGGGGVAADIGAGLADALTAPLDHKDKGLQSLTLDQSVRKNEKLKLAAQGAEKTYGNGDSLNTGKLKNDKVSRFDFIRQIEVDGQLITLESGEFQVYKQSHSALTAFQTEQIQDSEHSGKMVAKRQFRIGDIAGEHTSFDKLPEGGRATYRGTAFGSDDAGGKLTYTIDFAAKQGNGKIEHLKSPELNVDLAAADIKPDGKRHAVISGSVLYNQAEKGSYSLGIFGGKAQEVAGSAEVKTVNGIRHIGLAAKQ

[2] = biological target: T2, recombinant fHbp from MC58 with Arg204 changed to histidine (Neisseria meningitidis strain MC58, UniProt E6MV22 27-274); test: western blot of site-directed mutant of recombinant MC58 fHbp
T2 construct: also called Arg204→His mutant
T2 sequence: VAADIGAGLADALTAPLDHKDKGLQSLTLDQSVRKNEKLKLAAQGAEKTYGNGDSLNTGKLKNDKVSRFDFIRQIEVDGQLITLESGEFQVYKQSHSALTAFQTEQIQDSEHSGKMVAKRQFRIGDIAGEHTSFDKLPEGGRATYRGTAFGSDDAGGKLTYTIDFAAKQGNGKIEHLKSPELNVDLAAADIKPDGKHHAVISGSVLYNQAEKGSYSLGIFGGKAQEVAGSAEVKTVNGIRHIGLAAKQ

B1: MAb502 (antibody, V domains shown)
VH: EVQLQESGPGLAKPSQTLSLTCSVTGYSITSDFWNWIRKFPGNKLEYMGYISYSGSTDYNPSLKSRISITRDTSKNQYYLQLNSVTAEDTATYYCARYFGSSYAMDHWGQGTSVTVSS
VL: DIQMTQSPASLSASVGETVTITCRASGNIHNYLAWYQQKQGKSPQLLVYTAKTLAEGVPSRFSGSGSGTQFSLKINSLQPEDFGSYYCQHFWSTPWTFGGGTKLEIKR
notes: also called monoclonal anti-fHbp antibody MAb502
B1: binds [1]; no binding [2].
